Measurements published in patent US20240041922A1, “METHODS AND COMPOSITIONS” (Monash University, priority 2020, published 2024).
“Also recorded” adds a separate entry of the source. Blank lines part the entries; values can stand above or below the molecule they belong to.

What was measured:
[1] = test system: C2C12 myoblasts; test: C2C12 myoblast proliferation (EdU incorporation); format: cell-based, mouse; details: 6 h in growth media
Method: Larvae: Labelling and detection was carried out as previously described (Nguyen, P. D. et al. Muscle stem cells undergo extensive clonal drift during tissue growth via Meox1-mediated induction of G2 cell-cycle arrest. […] Cell culture: Cells were incubated for 1 h in media supplemented with 10 μM EdU. […] Cells were processed using the Click-iTTM EdU Alexa FluroTM 647 imaging Kit (Thermo Fisher) following the manufacturer's protocol. The mouse muscle cell line […]. Serial passaging and differentiation of myogenic cells isolated from dystrophic mouse muscle. Nature 270, 725 (1977) were cultured in growth media (Dulbecco's Modified Eagle Medium (4.5 g/l D-Glucose, No L Glutamine, No Sodium Pyruvate (Gibco))+20% Fetal Bovine Solution-One Shot (Gibco)+1% Glut Max 100x (Gibco)). Cells were maintained at 37° C., 5% CO2. Cells at 70% confluence, passage 8 were extracted from T75 flasks with 0.025% Tryspin EDTA (Gibco), neutralised in growth media, spun at 180×g for 5 min to pellet cells. The cells were then resuspended in 10 ml of fresh growth media. 500 μl of cells were plated on a 8-well on cover glass II (Sarstedt) chamber slide at a density of 1×10^3 cells/ml. Cells were left 4 h at 37° C. to re-attach. For drug treatments, the media were supplemented with appropriate doses and cultured for 6 h.

[2] = test system: CCR5; test: NAMPTcif competition with NAMPT binding to CCR5
Source text: (§1) As described above NAMPT, is a large homodimeric intracellular enzyme which acts as cytokine when released in the extracellular milieu. […] Moreover, the domain extends out from the core protein structure potentially facilitating receptor binding.

[3] = test system: satellite cells; test: Satellite cell stimulation with NAMPTcif (proliferation); format: cell-based; details: compared to no stimulation control
Source text: as §1

[4] = molecular target: T1, human recombinant CCR5 (hrCCR5) (Homo sapiens, UniProt P51681); test: hrNAMPT binding to hrCCR5 (ELISA); details: hrNAMPT(1) 0-800 nM on hrCCR5-coated ELISA plates, BSA binding deducted; read-out: dissociation constant (KD)
T1 construct: purchased Abcam
Method: hrNAMPT binding to hrCCR5: ELISA plates (Medium binding, Greiner Bio-One) were coated with 1% BSA or 20 nM of GST-fused recombinant human CCR5 (hrCCR5, Abcam) in PBS overnight at 4° C. Wells were blocked for 1 h at room temperature with 1% BSA in PBS containing 0.05% Tween-20 (PBS-T). Wells were washed 3 times with PBS-T and further incubated with hrNAMPT(1) (Peprotech) at increasing concentration (0 nM to 800 nM) for 1 h in PBS-T with 0.1% BSA.

[5] = test system: wound-resident muscle stem cells; test: Larval zebrafish needle stab muscle injury, wound site proliferation (EdU); format: in vivo; details: needle stab injury; for wound site muscle stem cell proliferation: agent alone
Method: 4dpf larvae were anaesthetized in 0.01% tricaine (MS-222) (Sigma-Aldrich) in Ringer's solution. Mechanical injures were targeted either to the dorsal or ventral myotome above the cloaca when the larvae is oriented dorsal to the top, anterior to the left. Needle-stick injury was carried out as previously described (Gurevich, D. B. el al. Asymmetric division of clonal muscle stem cells co-ordinate muscle regeneration in vivo. Science 353 6295 aad9969 (2016)). Briefly, the myotome was subjected to a single 30-gauge needle puncture that generates an extensive injury with many damaged muscle fibres. For laser-induced injury, anaesthetised larvae were mounted in a thin layer of 1% low-melt agarose in Ringer's solution. Injuries were carried out using a UV-nitrogen laser pulsed through a coumarin 440 nm dye cell coupled to a Zeiss Axioplan microscope (MicroPoint Laser System, Andor Technology). On average a laser injury required pulses for 5-10 sec from laser beams focused through a 40× water immersion objective. For time-lapse analysis of the immediate response to injury, muscle fibre ablations were achieved using a SIM scanner (Olympus) at 790 nm and 200 msec dwell time at 100% laser power on an Olympus FVMPE-RS upright multi-photon microscope equipped with a 25×/1.05 water immersion objective. Injury-responding macrophages were tracked using the manual tracking plugin in Fiji.
Cell ablation was carried out as previously described (Pisharath, H. & Parsons, M. J. in Zebrafish 133-143 (Springer, 2009)) with minor modifications. Larvae at the appropriate stage were incubated in 5-10 mM metronidazole (Mtz) (Sigma-Aldrich) in Ringer's solution and daily refreshed until experimental end point. Drug treatments were carried out by incubating 4 dpf needle stick injured larvae in 5 and 10 μM cenicriviroc (CVC) (Med Chem Express) and 5 and 10 μM maraviroc (MVC) (Med Chem Express) in Ringer's solution immediately post injury and refreshed daily.
The effect of drug treatment on laser ablation muscle injury was assayed by treating larvae with 5 μM CVC for 2 h prior to injury and with larvae being maintained in the drug until experimental end point. […] Chemokine supplementation experiments were carried out in plasticware coated with 0.1% bovine serum albumin (BSA) overnight (rinsed in Ringer's solution prior to use) to minimise protein adsorption. Larvae were treated with 57 nM recombinant human visfatin (hrNAMPT(1)) (PeproTech), 57 nM recombinant murine CCL8/MCP-2 (mrCCL8) (PeproTech) and combinations with Mtz and CVC.
Larvae: Labelling and detection was carried out as previously described (Nguyen, P. D. et al. Muscle stem cells undergo extensive clonal drift during tissue growth via Meox1-mediated induction of G2 cell-cycle arrest. Cell Stem Cell 21, 107-119. e106 (2017))^55 with minor alteration. 6 dpf/2 dpi larvae were pulsed with 2.5 nM EdU (Thermo Fisher) for 1h and chased for a further 1.5 h prior to fixation. Cell culture: Cells were incubated for 1 h in media supplemented with 10 μM EdU. Following Edu pulse, C2C12 cells were fixed immediately, while primary mouse myoblast co-cultures were rinsed in PBS, replaced with media and incubated for a further 2 h following which the cells were fixed. Cells were processed using the Click-iT™ EdU Alexa Fluro™ 647 imaging Kit (Thermo Fisher) following the manufacturer's protocol.

[6] = test system: PAX7+ satellite cells; test: Primary mouse myoblast mono- and co-cultures, PAX7+ satellite cell proliferation (EdU); format: cell-based; details: myoblast monoculture (MB) and MB+3T3 co-culture, 24 h
Method: Larvae: Labelling and detection was carried out as previously described (Nguyen, P. D. et al. Muscle stem cells undergo extensive clonal drift during tissue growth via Meox1-mediated induction of G2 cell-cycle arrest. […] Cell culture: Cells were incubated for 1 h in media supplemented with 10 μM EdU. […] Cells were processed using the Click-iTTM EdU Alexa FluroTM 647 imaging Kit (Thermo Fisher) following the manufacturer's protocol. For isolation of primary mouse myoblasts, limb skeletal muscle from E17.5 C57/BL6J mice were minced and digested in 0.125% Trypsin at 37° C. for 20 min. […] Myoblasts were again depleted for fibroblasts prior to co-culturing on gelatin-coated 48 well plates in DMEM+20% FBS+10% L929-conditioned medium. 100,000 myoblasts were plated with either 7,500 MafB/c-Maf deficient (Maf-DKO) macrophages (Aziz, A., Soucie, E., Sarrazin, […]. MafB/c-Maf deficiency enables self-renewal of differentiated functional macrophages. […] For drug treatments, the media were supplemented with appropriate doses and cultured for 24 h.

T1 sequence (P51681 whole entry): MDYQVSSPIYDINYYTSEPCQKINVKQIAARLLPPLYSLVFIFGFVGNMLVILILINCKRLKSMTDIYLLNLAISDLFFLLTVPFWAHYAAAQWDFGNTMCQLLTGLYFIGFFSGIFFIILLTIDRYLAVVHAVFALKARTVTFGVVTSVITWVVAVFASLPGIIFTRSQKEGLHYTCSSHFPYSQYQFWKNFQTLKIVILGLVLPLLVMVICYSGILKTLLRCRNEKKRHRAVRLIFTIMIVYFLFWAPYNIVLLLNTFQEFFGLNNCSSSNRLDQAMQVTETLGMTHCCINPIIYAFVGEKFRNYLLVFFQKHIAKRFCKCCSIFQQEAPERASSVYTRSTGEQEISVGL

B1: hrNAMPT(2): recombinant human visfatin (Enzo Life Sciences) (protein)
chain: MNPAAEAEFNILLATDSYKVTHYKQYPPNTSKVYSYFECREKKTENSKLRKVKYEETVFYGLQYILNKYLKGKVVTKEKIQEAKDVYKEHFQDDVFNEKGWNYILEKYDGHLPIEIKAVPEGFVIPRGNVLFTVENTDPECYWLTNWIETILVQSWYPITVATNSREQKKILAKYLLETSGNLDGLEYKLHDFGYRGVSSQETAGIGASAHLVNFKGTDTVAGLALIKKYYGTKDPVPGYSVPAAEHSTITAWGKDHEKDAFEHIVTQFSSVPVSVVSDSYDIYNACEKIWGEDLRHLIVSRSTQAPLIIRPDSGNPLDTVLKVLEILGKKFPVTENSKGYKLLPPYLRVIQGDGVDINTLQEIVEGMKQKMWSIENIAFGSGGGLLQKLTRDLLNCSFKCSYVVTNGLGINVFKDPVADPNKRSKKGRLSLHRTPAGNFVTLEEGKGDLEEYGQDLLHTVFKNGKVTKSYSFDEIRKNAQLNIELEAAHH
myoblast proliferation, factor added alone [1]: dose dependent increase in myoblast proliferation; also recorded: comparable and significant dose dependent increases in myoblast proliferation

inhibition of NAMPT binding to CCR5 [2]: inhibits the binding of NAMPT to CCR5
B2: NAMPTcif: recombinantly produced C-terminal fragment of NAMPT, termed cytokine finger (cif) (protein)
chain: MSYVVTNGLGVNVFKDPVADPNKRSKKGRLSLHRTPAGNFVTLEEGKGDLEEYGHDLLHTVFKNGKVTKSYSFDEVRKNAQLNIEQDVAPHHHHHHH
satellite cell proliferation [3]: promotes proliferation in a dose-dependent manner
satellite cell proliferation ([3]; listed as cif): stimulates satellite cell proliferation in a dose-dependent manner

Kd [4]: 172 ± 18 nM
B3: hrNAMPT(1): recombinant human visfatin (PeproTech) (protein)
chain: PPNTSKVYSYFECREKKTENSKLRKVKYEETVFYGLQYILNKYLKGKVVTKEKIQEAKDVYKEHFQDDVFNEKGWNYILEKYDGHLPIEIKAVPEGFVIPRGNVLFTVENTDPECYWLTNWIETILVQSWYPITVATNSREQKKILAKYLLETSGNLDGLEYKLHDFGYRGVSSQETAGIGASAHLVNFKGTDTVAGLALIKKYYGTKDPVPGYSVPAAEHSTITAWGKDHEKDAFEHIVTQFSSVPVSVVSDSYDIYNACEKIWGEDLRHLIVSRSTQAPLIIRPDSGNPLDTVLKVLEILGKKFPVTENSKGYKLLPPYLRVIQGDGVDINTLQEIVEGMKQKMWSIENIAFGSGGGLLQKLTRDLLNCSFKCSYVVTNGLGINVFKDPVADPNKRSKKGRLSLHRTPAGNFVTLEEGKGDLEEYGQDLLHTVFKNGKVTKSYSFDEIRKNAQLNIELEAAHH
myoblast proliferation, factor added alone [1]: dose dependent increase in myoblast proliferation; also recorded: comparable and significant dose dependent increases in myoblast proliferation

B4: mrCCL8: recombinant murine CCL8/MCP-2 (PeproTech), canonical CCR5 ligand (protein)
chain: GPDKAPVTCCFHVLKLKIPLRVLKSYERINNIQCPMEAVVFQTKQGMSLCVDPTQKWVSEYMEILDQKSQILQP
myoblast proliferation, factor added alone [1]: functioned to enhance C2C12 proliferation
myoblast proliferation, factor added alone ([1]; listed as CCL8/MCP-2): could be recapitulated
increase in cell proliferation external to the site of injury vs control [5]: 43.03±4.46%
proliferation external to the injury zone [5]: also increased proliferation external to the injury zone
wound site muscle stem cell proliferation [5]: functioned to increase proliferation in the wound site
increase in muscle stem cell proliferation within the wound site vs control ([5]; supplementation): 28.34±4.48%

B5: mrCCL4: recombinant murine CCL4/MIP-1β (PeproTech), cognate CCR5 ligand (protein)
chain: APMGSDPPTSCCFSYTSRQLHRSFVMDYYETSSLCSKPAVVFLTKRGRQICANPSEPWVTEYMSDLELN
myoblast proliferation, factor added alone [1]: functioned to enhance C2C12 proliferation
myoblast proliferation, factor added alone ([1]; listed as CCL4/MIP-1β): could be recapitulated
satellite cell proliferation on supplementation [6]: enhanced proliferation; also recorded: mirrored the results of NAMPT addition
proliferation external to the injury zone [5]: failed to demonstrate discrimination between injury region and sites external to the damage
wound site muscle stem cell proliferation [5]: functioned to enhance proliferation
